Laboratory results as given in patent US20170319675A1 (IMMATICS BIOTECHNOLOGIES, published 2017).

Target: T1, HLA-A*0201 (human)
T1 construct: also called peptide-receptive MHC molecules; MHC class I
Assay: UV-ligand exchange; anti-b2m ELISA
Excerpt: Candidate peptides for the vaccines according to the present invention were further tested for immunogenicity by in vitro priming assays. The individual peptide-MHC complexes required for these assays were produced by UV-ligand exchange, where a UV-sensitive peptide is cleaved upon UV-irradiation, and exchanged with the peptide of interest as analyzed. Only peptide candidates that can effectively bind and stabilize the peptide-receptive MHC molecules prevent dissociation of the MHC complexes. To determine the yield of the exchange reaction, an ELISA was performed based on the detection of the light chain (β2m) of stabilized MHC complexes.
Peptide-MHC monomers of the UV-exchange reaction were diluted 100 fold in blocking buffer. Samples were incubated for 1 h at 37° C., washed four times, incubated with 2 μg/ml HRP conjugated anti-β2m for 1 h at 37° C., washed again and detected with TMB solution that is stopped with […]. Absorption was measured at 450 nm.

Average exchange yield in %: 47%
Binder: RLLAAENFL [SAMSN1-001]
